Source: article PMC4751342

What was measured:
[1] = biological target: human Izumo1, immobilized AVEXIS bait, Q8IYV9; test: AVEXIS; settings: chain shown with the change;; parent: est. 0.16; read off a plot
[2] = biological target: T1, mouse Izumo1, immobilized AVEXIS bait, Q9D9J7; test: AVEXIS; settings: chain shown with the change;; parent: est. 0.51; read off a plot
T1 chain: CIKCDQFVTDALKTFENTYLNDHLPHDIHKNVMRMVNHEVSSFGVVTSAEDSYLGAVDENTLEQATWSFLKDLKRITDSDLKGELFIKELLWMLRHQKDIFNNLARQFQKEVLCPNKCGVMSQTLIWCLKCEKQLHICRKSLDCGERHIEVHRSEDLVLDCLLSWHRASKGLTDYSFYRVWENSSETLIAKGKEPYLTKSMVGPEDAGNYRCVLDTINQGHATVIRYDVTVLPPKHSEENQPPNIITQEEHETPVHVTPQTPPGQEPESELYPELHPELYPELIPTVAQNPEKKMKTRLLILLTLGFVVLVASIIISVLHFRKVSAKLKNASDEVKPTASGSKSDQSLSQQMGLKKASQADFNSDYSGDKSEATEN

Sequence of human Izumo1, immobilized AVEXIS bait, Q8IYV9 (Q8IYV9 22-350): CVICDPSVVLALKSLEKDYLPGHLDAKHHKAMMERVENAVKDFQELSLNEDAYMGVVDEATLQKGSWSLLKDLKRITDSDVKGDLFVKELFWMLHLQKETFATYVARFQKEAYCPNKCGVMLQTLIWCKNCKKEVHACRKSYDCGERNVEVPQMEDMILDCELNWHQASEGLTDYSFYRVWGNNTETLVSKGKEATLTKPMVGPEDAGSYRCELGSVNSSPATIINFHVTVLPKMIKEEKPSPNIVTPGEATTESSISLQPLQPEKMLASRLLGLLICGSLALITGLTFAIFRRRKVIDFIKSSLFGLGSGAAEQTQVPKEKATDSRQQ

B1: mouse Juno, wild type, AVEXIS prey, Q9EQF4 N185S (protein)
chain: GDKLLSVCMNSKRHKQEPGPEDELYQECRPWEDNACCTRSTSWEAHLEEPLLFNFSMMHCGLLTPACRKHFIQAICFHECSPNLGPWIQPVVPNGQEEQRVWGVPLCQEDCEDWWRACHSSLTCKSNWLHGWDWSEEKKHCPAHEPCLPFSYHFPTPDDLCEKIWSNTFKASPERRNSGRCLQKWFEPTLSNPNVEVALHFAG
B1 was tested, and the response [1] was 0.17 A 485 nm and the response [2] was 0.5 A 485 nm.
